Sequences and labels used below:
B1: A-3 (antibody, V domains shown)
VH: EVQLLESGPGLVKPSETLSLTCTVSGGSINSRSYYWGWIRQPPGKGLEWIGSIYYSGSTYYNPSLKSRVTISVDTSKNQFSLKLSSVIAADTAVYFCARLEQWELPGGWFDPWGQGTLVTVSS
VL: NFMLTQPHSVSESPGKTVTISCTRSSGSIASNYVQWYQQRPGSAPTTVIYEDNQRPSGVPDRFSGSIDISSNSASLTISGLKTEDEADYSCQSSDSSNVVFGGGTKLTVL
B2: A-5 (antibody, V domains shown)
VH: QVQLVESGGGLIQPGESLRLSCAASEFIVSRNYMSWVRQAPGKGLEWVSVIYSGGNTYYADSVKGRFTISRDNSKNTLYLQMNSLRAEDTAVYYCARDLRGPGCFDFWGQGTTVTVSS
VL: DIQVTQSPSSLSASVGDRVTITCQASQDISNFLNWYQQKPGKAPKLLIYDASNLETGVPSRFSASGSGTEFTFTISSLQPEDIATYYCQQYDNLRVTFGGGTKLEIK
B3: A-7 (antibody, V domains shown)
VH: EVQLVESGAEVRKPGASVKVSCKASGYTFTFYYIHWVRQAPGQGLEWMGWISPISGATNYAQTFQGRVTMTRDTSITTAYMELSSLTSDDTAVYYCAREKYYDSSGSSDYWGQGTLVTVSS
VL: QPVLTQPPSVSAAPGQNVTIFCSGSSSNIGNNYVSWYQQLPGPAPKLLIYENNKRPSGIPDRFSGSKSGTSATLGITGLQTGDEADYYCGTWESSLSAPRVFGSGTKLTVL
B4: A-4 (antibody, V domains shown)
VH: EVQLVESGGGLIQPGGSLTLSCAASGFTVSSNYMNWVRQAPGKGLEWVSVIYSGGSTYYADSVKGRFTISRDNSKNTLYLQMNSLRAEDTAVYYCAREVYSYFDYWGQGTLVTVSS
VL: DIQLTQSPSFLSASVGDRVTITCRASQGISSYLAWYQQKPGKAPKLLIYAASTLQSGVPSRFSGSGSGTEFTLTISRLQPEDLATYYCQQLNSYPPHTFGQGAKLEIK
B5: A-17 (antibody, V domains shown)
VH: EVQLQESGPGLVKPSETLSLTCTVSGGSISSYYWSWIRQPPGKGLEWIGYIYYSGSTNYNPSLKSRVTISVGTSKNQFSLKLSSVTAADTAVYYCAKSASDEPPPSTAAAGSHYYYYGMDVWGQGTTVTVSS
VL: EIVMTQSPLSLPVTPGEPASISCRSSQSLLHSNGYNYLDWYLQKPGQSPHVLIYLGSNRASGVPDRFSGSGSGTDFTLKISRVEAEDVGVYYCMQALQTPNTFGQGTKLEIK
B6: A-8 (antibody, V domains shown)
VH: EVQLLESGGGLVQPGGSLRLSCAASGFTFSSYAMSWVRQAPGKGLEWVSAISGSGNSTSYADSVKGRFTLSRDNSKNTLYLQMNSLRAEDTAIYYCAKGLGTRSFNWGAFDYWGQGTLVTVSS
VL: DIRVTQSPSSLSASVGDRVTITCRASQGISYSLAWYQQKPGKAPKLLLYAASNLESGVPSRFSGSGSGTDYTLTVSSLQPEDFATYYCQQYYSTPWTFGQGTKVEIK
B7: A-15 (antibody, V domains shown)
VH: QVQLVQSGAEVKKPGASVKVSCKASGYTSSSYYMHWVRQAPGQGPEWMGIINPGGTSTSYAQKFQGRVTMTRDTSTSTVYMELSSLRSEDTAVYYCAIGYCSTTSCRWGDAFDIWGQGTMVTVSS
VL: DIQVTQSPSSLSASVGDRVTITCRASQSISSYLNWYQQKPEKAPNLLIYAASSLQSGVPSRFSGSGSGTDFTLTISSLQPEDFATYYCQQSSTTPPTFGQGTKVEIK
B8: A-14 (antibody, V domains shown)
VH: EVQLVESGGGVVQPGRSLRLSCAASGFTFSTYGMHWVRQAPGKGLEWVAVIWYDGSNKYYADSVKGRFTISRDNSKNTLYLQMNSLRAEDTAVYYCARSVDGDYLEYFQHWGQGTLVTVSS
VL: QPVLTQPRSVSGSPGQSVTISCTGTSSDVGGYNYVSWYQQHPGKAPKLMIYDVSKRPSGVPDRFSGSKSGNTASLTISGLQAEDEADYYCCSYAGGYTNYVFGTGTKLTVL
B9: A-12 (antibody, V domains shown)
VH: EVQLLESGGGLVQPGGSLRLSCAVSGLTVSSNYMSWVRQAPGKGLEWVSLIYSGGSTYYADSVKGRFTISRDNSKNTLYLQMNSLRAEDTAVYYCARGELGIPYGMDVWGQGTTVTVSS
VL: QSVLTQPPSVSAAPGQKVTISCSGGSSNVGDNFVSWYQQLPGTAPKLLIYDNNRRPSGIPDRFSGSKSGTSATLGITGLQTGDEADYYCGTWDSSLSAGVFGGGTKVTVL
B10: A-20 (antibody, V domains shown)
VH: QVQLVESGGGVVQPGRSLRLSCAASGFTFSNFAMHWVRQAPGKGLEWVAVILYDGINKYYADSVKGRFTISRGNSKNTLSLQMNSLRAEDTAVYYCARAQNYYDRSGTLQLDAFDIWGQGTLVTVSS
VL: AIQMTQSPSSLSASVGDRVTITCRASQGIRNDLGWYQQKPGKAPKLLIYAASSLQSGVPSRFSGSGSGTDFTLTISSLQPEDFATYYCLQDYNYPLTFGGGTKVEIK
B11: A-20.1 (antibody, V domains shown)
VH: B10 VH
VL: B10 VL with R24V, A50E, Q55E
B12: A-20.2 (antibody, V domains shown)
VH: B10 VH with E6Q, S30D, L52E, S106Y
VL: B10 VL with A50D
B13: A-23.3 (antibody, V domains shown)
VH: EVQLVESGGGLVQPGRSLRLSCAASGFTFDDYAMHWVRQAPGKGLEWVSGTSWNSGTIGYADSVKGRFIISRDNAKNSLYLQMNSLRGEDMALYYCVKDRKREDPSLGGMDVWGQGTTVTVSS
VL: SYVLTQPPSVSVAPGQTARITCGGNNIGSKSVHWYQQKPGQAPVLVVYDDTDRPSGIPERFSGSNSGNTATLTISRVEAGDEADYYCQVWDSSSDDYVFGTGTKVTVL
B14: A-21.1 (antibody, V domains shown)
VH: EVQLVESGGGLVQPGGSLRLSCAASGFTFRRYWMHWVRQAPGKGLVWVSRINSDGSSTTYADSVKGRFTISRDNAKNTLYLQMNSLRAEDTAVYYCARELYYYDSRGFEEGEGWFDPWGQGTLVTVSS
VL: QSVLTQPPSVSGAPGQRVTISCTGISSNIGAGYDVHWYQQLPGTAPKLLIYGNSNRPSGVPDRFSASKSGTSAPLAITGLQAEDEADYYCQSSDRSLSGSVFGTGTKVTVL

Changes are numbered by the printed parent chain.

The target in the first assay is T1, SARS-CoV-2 wild type spike protein (on reporter virus particles) (SARS-CoV-2, UniProt P0DTC2 14-1273). Description: cell-based or functional assay.
As for B1, the “PsV Neut Assay IC50” value came to 0.419 nM.

In the case of B2, the “PsV Neut Assay IC50” value is 1.1 nM.

In the case of B3, the “PsV Neut Assay IC50” value amounted to 0.0922 nM.

Turning to B4, the “PsV Neut Assay IC50” value is 2.26 nM.

For the molecule B5, the “PsV Neut Assay IC50” value was found to be 0.66 nM.

Turning to B6, the “PsV Neut Assay IC50” value was 0.846 nM.

As for B7, the “PsV Neut Assay IC50” value stood at 1.44 nM.

Turning to B8, the “PsV Neut Assay IC50” value came to 1.61 nM.

B9: the “PsV Neut Assay IC50” value came out at 0.404 nM.

In a further assay the target is T2, SARS-CoV1 Spike [change] (SARS-CoV-1, UniProt P59594 14-667). Description: Octet BLI, IgG, monovalent.
As to B1, the binding result was “no binding”.

Consider B2, for which the binding result is “no binding”.

B3: the binding result is “no binding”.

Take B4: the binding result is reported as “no binding”.

For B5, the binding result is listed as “no binding”.

As to B6, the binding result is recorded as “no binding”.

Turning to B7, the binding result was “no binding”.

As for B8, the binding result was “no binding”.

For B9, the binding result is listed as “no binding”.

In another assay the target is T3, MERS-CoV [change] (MERS-CoV, UniProt K9N5Q8 18-725).
T3 sequence: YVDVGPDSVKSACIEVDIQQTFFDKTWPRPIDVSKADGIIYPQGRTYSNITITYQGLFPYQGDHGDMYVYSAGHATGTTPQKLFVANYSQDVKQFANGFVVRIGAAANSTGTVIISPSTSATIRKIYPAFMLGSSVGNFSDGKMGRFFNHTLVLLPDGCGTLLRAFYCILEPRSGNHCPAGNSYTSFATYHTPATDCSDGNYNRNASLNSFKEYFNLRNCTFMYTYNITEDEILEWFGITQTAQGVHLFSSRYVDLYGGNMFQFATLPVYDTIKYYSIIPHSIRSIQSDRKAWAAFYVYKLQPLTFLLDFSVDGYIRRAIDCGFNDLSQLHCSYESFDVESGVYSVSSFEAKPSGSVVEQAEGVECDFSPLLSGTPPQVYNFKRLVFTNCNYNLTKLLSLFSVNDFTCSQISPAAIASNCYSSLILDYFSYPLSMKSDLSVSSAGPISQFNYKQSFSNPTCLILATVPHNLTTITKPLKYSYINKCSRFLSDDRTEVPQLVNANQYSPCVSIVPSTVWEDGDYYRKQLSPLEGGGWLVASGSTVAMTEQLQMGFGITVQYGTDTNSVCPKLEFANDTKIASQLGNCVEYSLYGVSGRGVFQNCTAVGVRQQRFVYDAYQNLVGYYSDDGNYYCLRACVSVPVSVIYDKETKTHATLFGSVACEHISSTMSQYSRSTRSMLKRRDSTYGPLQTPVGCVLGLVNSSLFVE
As to the kind of experiment: Octet BLI, IgG, monovalent.
Consider B1, for which the binding result is “no binding”.

Take B2: the binding result is given as “no binding”.

On to B3, for which the binding result is on record as “no binding”.

B4: the binding result is listed as “no binding”.

Take B5: the binding result was “no binding”.

For the molecule B6, the binding result was “no binding”.

Take B7: the binding result is on record as “no binding”.

For the molecule B8, the binding result is reported as “no binding”.

B9: the binding result was “no binding”.

Another assay addresses T4, SARS-CoV-2 Spike S1-His (SARS-CoV-2, UniProt P0DTC2 16-685). As to the kind of experiment: Octet BLI, IgG, monovalent.
Take B1: the Kd was determined as 37.4 nM.

As to B2, the Kd was 37.3 nM.

For the molecule B3, the Kd stood at 2.71 nM.

Consider B5, for which the Kd came to 1.58 nM.

The molecule B6 yielded a Kd of 0.477 nM.

The molecule B7 came in with a Kd of 7.82 nM.

Turning to B8, the Kd was 26.6 nM.

Take B9: the Kd is 2.57 nM.

For another assay, the target named is SARS-CoV-2 S Trimer (SARS-CoV-2, UniProt P0DTC2 16-1213). Description: Octet BLI, IgG, avid.
Regarding B1, the Kd worked out at 0.945 nM.

The molecule B2 showed a dissociation constant (Kd) of 2.41 nM.

Consider B3, for which the Kd came out at 0.804 nM.

As for B4, binding was characterised by a dissociation constant (Kd) of 1.97 nM.

Molecule B6 returned a Kd of 1.53 nM.

Turning to B7, binding was put at a Kd of 1.62 nM.

Take B8: binding was characterised by a dissociation constant (Kd) of 2.09 nM.

Consider B9, for which binding was put at a Kd of 1.11 nM.

In a further assay the target is T2, SARS-CoV1 Spike [change]. As to the kind of experiment: Octet BLI, IgG, monovalent. This is another data set of the same source.
With B10, binding was characterised by a dissociation constant (Kd) of 22 nM.

B11 showed a Kd of 5.29 nM.

In the case of B12, the Kd was found to be 1.74 nM.

Take B13: the binding result was “no binding”.

For the molecule B14, the Kd amounted to 6.57 nM.

The next assay deals with T4, SARS-CoV-2 Spike S1-His. As to the kind of experiment: Octet BLI, IgG, monovalent. This is another data set of the same source.
The molecule B10 yielded a Kd of 3.95 nM.

Regarding B12, binding was put at a Kd of 0.293 nM.

A further assay has as its target T1, SARS-CoV-2 wild type spike protein (on …). Description: cell-based or functional assay. The source holds these as a separate data set.
For the molecule B10, the “WT PsV IC50” value was determined as 2.45 nM.

Regarding B12, the “WT PsV IC50” value is 1.06 nM.

Consider B14, for which the “WT PsV IC50” value came to 1.75 nM.

The values above are taken from US20260217797A1 (Takeda / Millennium, published 2026).
